Results on two molecules are retold here after patent US12221480.

For test [1], the target named is recombinant human soluble γ2 δ3TCR-FC (wild type) (human) (UniProt B7Z8K6). Description: Octet, γ2δ3TCR-hFc captured on anti-human Fc biosensor; row antibody δ3-42 taken as first (saturating), column antibody as second; 5 µg/mL each. A general note: Biolayer interferometry detects binding as a change in optical thickness at a sensor tip.
In test [2] the target is γ2δ3 TCR-hFc mutant S9 (E67Q, D70N, R75Q, R95Q, E97Q in the Vδ3 chain) (human) (UniProt B7Z8K6). Description: Luminex beads; TCR-hFc captured by goat anti-human Fc; antibody titrated; extrapolated value, no saturation achieved.
Test [3] concerns the target γ2δ3 TCR-hFc mutant S6 (R75Q, R95Q in the Vδ3 chain) (human) (UniProt B7Z8K6). The test is described as above.
Test [4] has as its target recombinant human soluble γ2 δ3TCR-FC (wild type) (human) (UniProt B7Z8K6). Description: Octet, γ2δ3TCR-hFc captured on anti-human Fc biosensor; row antibody δ3-58 taken as first (saturating), column antibody as second; 5 µg/mL each.
Test [5] shares this target. Description: Octet, γ2δ3TCR-hFc captured on anti-human Fc biosensor; row antibody δ3-23 taken as first (saturating), column antibody as second; 5 µg/mL each.
Test [6] shares this target. Description: Octet, γ2δ3TCR-hFc captured on anti-human Fc biosensor; row antibody δ3-31 taken as first (saturating), column antibody as second; 5 µg/mL each; self pair.
Test [7] has the same target. Description: Octet, γ2δ3TCR-hFc captured on anti-human Fc biosensor; row antibody δ3-08 taken as first (saturating), column antibody as second; 5 µg/mL each.
Test [8] addresses γ2δ3 TCR-hFc mutant S11 (K79L, L82K, H88F in the Vδ3 chain) (human) (UniProt B7Z8K6). Description: Luminex beads; TCR-hFc captured by goat anti-human Fc; antibody titrated.
Test [9] deals with γ2δ3 TCR-hFc mutant S8 (K79L, E18Q, H88F in the Vδ3 chain) (human) (UniProt B7Z8K6). The test is described as above.
In test [10] the target is γ2δ3 TCR-hFc mutant S1 (D10N in the Vδ3 chain) (human) (UniProt B7Z8K6). Described as above.
Test [11] addresses γ2δ3 TCR-hFc mutant S5 (D70N, E67Q in the Vδ3 chain) (human) (UniProt B7Z8K6). The test is described as above.
For test [12], the target named is recombinant human soluble γ2 δ3TCR-FC (wild type) (human) (UniProt B7Z8K6). The description is as above.
Test [13] deals with γ2δ3 TCR-hFc mutant S10 (K3A, K79L, H88T in the Vδ3 chain) (human) (UniProt B7Z8K6). The test is described as above.
Test [14] deals with γ2δ3 TCR-hFc mutant S7 (D57N, R65Q in the Vδ3 chain) (human) (UniProt B7Z8K6). Described as above.
Test [15] addresses γ2δ3 TCR-hFc mutant S4 (E18Q in the Vδ3 chain) (human) (UniProt B7Z8K6). Described as above.
Test [16] concerns the target γ2δ3 TCR-hFc mutant S3 (K79L, H88F in the Vδ3 chain) (human) (UniProt B7Z8K6). The test is described as above.
The target in test [17] is γ2δ3 TCR-hFc mutant S2 (D26N, K85L in the Vδ3 chain) (human) (UniProt B7Z8K6). The description is as above.
In test [18] the target is recombinant human soluble γ2 δ3TCR-FC (wild type) (human) (UniProt B7Z8K6). Description: Octet, γ2δ3TCR-hFc captured on anti-human Fc biosensor; row antibody δ3-23 taken as first (saturating), column antibody as second; 5 µg/mL each; self pair.
Test [19] deals with γ2δ3 TCR-hFc mutant S11 (K79L, L82K, H88F in the Vδ3 chain) (human) (UniProt B7Z8K6). Description: Luminex beads; TCR-hFc captured by goat anti-human Fc; antibody titrated; extrapolated value, no saturation achieved.
In test [20] the target is γ2δ3 TCR-hFc mutant S8 (K79L, E18Q, H88F in the Vδ3 chain) (human) (UniProt B7Z8K6). The description is as above.
For test [21], the target named is γ2δ3 TCR-hFc mutant S10 (K3A, K79L, H88T in the Vδ3 chain) (human) (UniProt B7Z8K6). Described as above.
The target in test [22] is γ2δ3 TCR-hFc mutant S3 (K79L, H88F in the Vδ3 chain) (human) (UniProt B7Z8K6). The test is described as above.
Test [23] deals with recombinant human soluble γ2 δ3TCR-FC (wild type) (human) (UniProt B7Z8K6). Description: Octet, γ2δ3TCR-hFc captured on anti-human Fc biosensor; row antibody δ3-31 taken as first (saturating), column antibody as second; 5 µg/mL each.
Test [24] addresses Vδ3 γδ TCR on the surface of human Vδ3 γδ T cells (PBMC-derived, expanded cultures) (human) (UniProt A0JD37). Description: flow cytometry, upper right panel (δ3-08 Expansion): untransduced Donor 4 cells after αβ T cell depletion, δ3-23 MAb staining (x axis) against anti-TCRαβ (y axis); the gated population lies between about 10^4 and 10^5 on the δ3-23 axis; no % sign is printed.

Test [25] shares this target. Description: flow cytometry, lower right panel (δ3-23 Expansion): untransduced Donor 4 cells after αβ T cell depletion, δ3-23 MAb staining (x axis) against anti-TCRαβ (y axis); the gated population lies between about 10^4 and 10^5 on the δ3-23 axis; no % sign is printed. In general terms: Flow cytometry measures light scatter and fluorescence of single cells or particles in a stream.

Test [26] addresses γ2δ3 TCR-hFc mutant S9 (E67Q, D70N, R75Q, R95Q, E97Q in the Vδ3 chain) (human) (UniProt B7Z8K6). Description: Luminex beads; TCR-hFc captured by goat anti-human Fc; antibody titrated.
Test [27] concerns the target γ2δ3 TCR-hFc mutant S6 (R75Q, R95Q in the Vδ3 chain) (human) (UniProt B7Z8K6). Described as above.
Test [28] has as its target Vδ3 γδ TCR on the surface of human Vδ3 γδ T cells (PBMC-derived, expanded cultures) (human) (UniProt A0JD37). Description: flow cytometry on expanded, αβ T cell depleted γδ T cells of Donor 4.
The target is the same in test [29]. Description: cell-based or functional assay.

Sequence of UniProt A0JD37 (A0JD37 19-113, stated change not applied): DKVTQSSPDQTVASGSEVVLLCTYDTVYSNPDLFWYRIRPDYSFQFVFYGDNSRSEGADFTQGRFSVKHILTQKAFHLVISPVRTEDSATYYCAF

B1: δ3-31 (antibody, V domains shown)
VH: DVQLQESGPDLVKPSQSLSLTCTVTGYSITSGYGWHWIRQFPGNKLEWMGYISFSGSNKYNPSLKSRISITRDTSKNQFFLQLNSVTTEDTATYYCANLDYWGQGTTLTVSS
VL: DIQMTQRTSSLSASLGDRVTISCSASQDITNYLHWFQQKPDGTVKLLIYYTSTLHSGVPSRFSGSGSGTDYSLTISNLEPEDIATYYCQQYSKLPYTFGGGTKLEITR
On to B1, for which the paired-competition value (Octet signal of the second antibody per paragraph 256) in [1] was 0.37; in [4], 0.38; in test [5] it was 0.4; in test [6] it was 0.07; in [7], 0.44. Also, the EC50 in test [2] was 37.7 nM; in test [3], 44.4 nM; in [8], 0.06 nM; in [9] it was 0.06 nM; in [10], 0.06 nM; in test [11], 4.99 nM. The EC50 in [12] amounted to 0.05 nM; in test [13], 0.08 nM; in test [14], 0.05 nM; in [15], 0.05 nM; in test [16] it was 0.05 nM; in test [17], 0.05 nM.

B2: δ3-23 (antibody, V domains shown)
VH: EVQLQQSGAELVKPGASVKLSCTASGFNIRDTYMHWVKQRPEQGLEWIGRIDPANGNTKYDPKFRGKATITADTSSNTAYLQLSSLTSEGTAVYYCSEGIYFDYWGQGTTLTVSS
VL: DILLTQSPAILSVSPGERVSFSCRASQNIGTIIHWYQQRANGSPRLLIKYASESISGIPSRFSGSGSGTDFTLSINSVESEDIADYYCQQSNSWPYTFGGGTKLEIKR
Regarding B2, the paired-competition value (Octet signal of the second antibody per paragraph 256) in test [1] turned out to be 0.12; in [18], 0.06; in test [4], 0.07; in test [23], 0.48; in test [7] it was 0.29. Further, the EC50 in test [19] was 112 nM; in [20], 95.8 nM; in [21], 117 nM; in test [22], 137 nM; in [26] it was 0.05 nM; in [10], 0.04 nM. Besides, the EC50 in test [11] was 0.04 nM; in [12], 0.04 nM; in test [14] it was 0.04 nM; in test [27] it was 0.04 nM; in [15], 0.06 nM; in test [17], 0.04 nM. The percent of cells in the Vd3+ gate was 95.5% in test [24] and 95% in test [25]. The molecule further returned a % of non-Vδ1/non-Vδ2 cells stained positive in test [28] greater than 95%. Moreover, the share of non-Vδ1/non-Vδ2 γδ T cells in the culture on Day 21, Donor 1 in [29] was less than 41%.

What is called EC50 is the concentration giving half of the maximal effect.
